Source: PMC2887854

Target: protective antigen (PA83, 83 kDa), monomeric (Bacillus anthracis)
Test: SPR

protective antigen (PA83, 83 kDa), monomeric (Bacillus anthracis), sequence (P13423 30-764 limits assumed): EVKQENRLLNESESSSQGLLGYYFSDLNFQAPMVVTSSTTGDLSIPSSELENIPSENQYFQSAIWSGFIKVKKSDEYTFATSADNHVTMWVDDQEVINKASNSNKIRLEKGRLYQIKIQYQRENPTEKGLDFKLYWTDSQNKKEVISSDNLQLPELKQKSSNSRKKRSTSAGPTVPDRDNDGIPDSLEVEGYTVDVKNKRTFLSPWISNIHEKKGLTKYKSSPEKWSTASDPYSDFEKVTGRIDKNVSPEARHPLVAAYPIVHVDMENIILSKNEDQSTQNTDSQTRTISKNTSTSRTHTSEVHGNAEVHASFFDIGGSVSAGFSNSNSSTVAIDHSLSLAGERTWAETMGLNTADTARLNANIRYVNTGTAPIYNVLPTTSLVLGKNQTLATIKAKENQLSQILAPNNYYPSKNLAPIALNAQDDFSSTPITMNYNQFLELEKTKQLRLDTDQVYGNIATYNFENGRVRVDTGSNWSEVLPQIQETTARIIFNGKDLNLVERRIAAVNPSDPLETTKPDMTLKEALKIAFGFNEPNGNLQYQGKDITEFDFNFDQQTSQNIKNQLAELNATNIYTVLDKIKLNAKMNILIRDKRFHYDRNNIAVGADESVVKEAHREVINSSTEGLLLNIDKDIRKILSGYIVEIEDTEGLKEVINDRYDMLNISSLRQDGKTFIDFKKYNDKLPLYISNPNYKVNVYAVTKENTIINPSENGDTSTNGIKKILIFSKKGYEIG

Work on “CMG2-R40 vWA domain (residues 40-217) (from UniProt P58335 40-217) (domain or fragment)” yielded a Kd of 2.43 nM, a koff of 0.000105 s⁻¹ and a kon of 45300 M⁻¹ s⁻¹.
